In the supplement of paper PMC9732359:
± gives the uncertainty stated by the source.

Assay: protein stability index of a GFP-peptide fusion (yeast GPS) (PSI 1-4); higher = more stable; sorted into four equal gates, so the index is relative within each strain
Outline: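 Plasmids isolated from each sorting gate were PCR-amplified and Illumina-sequenced, and barcodes assigned the reads to strains. The gates, four of equal size, were set by GFP/Cherry fluorescence ratio on mid-log cultures in leucine-free medium. These cultures were yeast carrying a pooled library of tiled 17-residue yeast protein peptides fused downstream of GFP on a plasmid that also expresses Cherry. The protein stability index is the sum of every gate's read frequency times its gate number.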

Sequence | protein stability index (doa10∆) | protein stability index (pdr5∆) | protein stability index (san1∆) | protein stability index (ubr1∆)
KTEDPKGGIIASVGDIL [YML031W/NDC1] | 2.57 ± 0.067 | 2.62 ± 0.051 | 2.43 ± 0.046 | 2.12 ± 0.04
KTEPVGTGLQSYLEERE [RPC53] | 3.4 ± 0.25 | 3.24 ± 0.13 | 3.21 ± 0.12 | 3.2 ± 0.11
KTGTKPAAVFAETLKHD [RPL4B] | 2.17 ± 0.078 | 1.95 ± 0.18 | 1.63 ± 0.16 | 2 ± 0.15
KTLNLFKQIKSADCELL [RPO31] | 1.22 ± 0.21 | 1.06 ± 0.035 | 1.23 ± 0.29 | 1.05 ± 0.094
KTMKTFVIHIQEKNFQT [RPB5] | 2.05 ± 0.091 | 1.85 ± 0.072 | 1.88 ± 0.14 | 2.56 ± 0.088
KTRNPLTHSTPKNFGIG [RPL8A] | 3.02 ± 0.084 | 2.9 ± 0.058 | 2.95 ± 0.046 | 3.07 ± 0.054
KTTITRVEPETFEIPQA [SWI3] | 2.38 ± 0.066 | 2.81 ± 0.081 | 2.84 ± 0.072 | 2.38 ± 0.054
KTYNKLHYCVSCAIHAR [RPS26A] | 1.21 ± 0.055 | 1.33 ± 0.087 | 1.31 ± 0.14 | 1.2 ± 0.12
KVAQLRQTGPAKINEVY [NSL1] | 2.97 ± 0.14 | 3.04 ± 0.15 | 2.84 ± 0.1 | 3.58 ± 0.11
KVFIRESLSLKNIHISK [YML103C/NUP188] | 2.09 ± 0.039 | 2.21 ± 0.045 | 2.01 ± 0.057 | 1.92 ± 0.03
KVIEEQLKHTKLALAEN [SMC4] | 1.89 ± 0.12 | 1.78 ± 0.1 | 1.32 ± 0.15 | 2.23 ± 0.098
KVISEILTKEVQGSTLA [RPS1A] | 2.29 ± 0.026 | 2.336 ± 0.023 | 2.29 ± 0.03 | 2.194 ± 0.018
KVISEILTREVQNSTLA [RPS1B] | 2.51 ± 0.11 | 2.86 ± 0.1 | 2.64 ± 0.069 | 2.32 ± 0.059
KVKAGVRSANEDGTFSV [RRP43] | 3.2 ± 0.097 | 3.24 ± 0.11 | 3.48 ± 0.061 | 3.43 ± 0.077
KVLAAHTKFEVAIGLNG [RRP40] | 2.44 ± 0.088 | 2.56 ± 0.062 | 2.34 ± 0.072 | 2.89 ± 0.057
KVLARQQLQVLARYLKM [FAS2] | 1.41 ± 0.081 | 1.47 ± 0.083 | 1.75 ± 0.15 | 2.1 ± 0.12
KVLLDSKDVQQIDYKLE [RPS7A] | 2.69 ± 0.21 | 3.15 ± 0.15 | 3.31 ± 0.061 | 3.2 ± 0.12
KVSDPYVPTRNTFNYDV [RPN4] | 2.25 ± 0.14 | 2.39 ± 0.17 | 1.8 ± 0.28 | 2.08 ± 0.085
KVSGVSLLALWKEKKEK [RPS23A] | 2.55 ± 0.22 | 1.59 ± 0.1 | 1.78 ± 0.1 | 1.77 ± 0.11
KVTEKVLTQLTALALKY [CSI1] | 2.24 ± 0.044 | 2 ± 0.029 | 2 ± 0.039 | 2.13 ± 0.044
KVVNGNSADAAYAQVEI [FAS2] | 2.53 ± 0.063 | 2.67 ± 0.07 | 2.14 ± 0.068 | 2.42 ± 0.057
KWKPVLSHIVYFLVLSP [RPN5] | 1.39 ± 0.033 | 1.25 ± 0.031 | 1.2 ± 0.057 | 1.15 ± 0.025
KYDRILKEVPTYRYVSV [RPS25A] |  |  | 2.87 ± 0.22 | 2.89 ± 0.14
KYDRKVPSPTGEYVKEP [RPO21] | 2.98 ± 0.1 | 3.22 ± 0.071 | 2.81 ± 0.089 | 3.09 ± 0.04
KYKQLLLKDDTYQLCVR [RPN3] | 1.46 ± 0.073 | 1.78 ± 0.29 |  | 1.6 ± 0.18
KYLDQVLDHQRAIPFRR [RPL17B] | 2.78 ± 0.12 | 2.35 ± 0.076 | 1.87 ± 0.13 | 1.61 ± 0.066

Sequence | protein stability index (doa10∆) | protein stability index (pdr5∆) | protein stability index (san1∆) | protein stability index (ubr1∆)
KYLIKYNVFRQHTSFQE [CSI1] | 1.24 ± 0.069 | 1.2 ± 0.046 | 1.13 ± 0.14 | 1.19 ± 0.058
KYLKKRKIGISIDDHPY [RPC31] | 1.41 ± 0.075 | 1.33 ± 0.081 | 1.77 ± 0.099 | 1.74 ± 0.051
KYLSDIMELPGVYSDDE [SRP68] | 3.14 ± 0.25 | 3.08 ± 0.17 | 3.59 ± 0.17 | 3.36 ± 0.11
KYPMYMQLEEELMKLDG [MED6] | 2.14 ± 0.091 | 1.44 ± 0.084 | 1.39 ± 0.16 | 1.36 ± 0.06
KYSAITSSIFQESFNSV [NUT1] | 2.22 ± 0.053 | 2.37 ± 0.046 | 2.7 ± 0.047 | 2.48 ± 0.037
KYYIVSSSKSMINDENY [SRB8] | 2.91 ± 0.073 | 2.76 ± 0.056 | 2.43 ± 0.083 | 2.81 ± 0.04
LAAMAVLESHWKQDLTK [PUP1] | 3.24 ± 0.16 | 3.24 ± 0.14 | 2.48 ± 0.21 | 3.71 ± 0.18
LAASEIGISIVGRFSTI [ECM29] | 2.51 ± 0.091 | 2.95 ± 0.078 | 2.88 ± 0.073 | 2.3 ± 0.064
LADSLDRCVDPEDPYFN [DIS3] | 3.05 ± 0.095 | 2.64 ± 0.079 | 3.35 ± 0.076 | 3.4 ± 0.059
LADWRIRPLSKPMTAYA [RRP6] | 2.82 ± 0.13 | 3.15 ± 0.13 | 2.7 ± 0.19 | 2.98 ± 0.088
LAEKVEKASRQQRKQKK [RPS24A] | 3.65 ± 0.27 | 3.33 ± 0.11 | 3.35 ± 0.1 | 3.15 ± 0.2
LAGKYIPNLTAKPFQVT [FAS1] | 2.37 ± 0.06 | 2.76 ± 0.053 | 2.29 ± 0.1 | 2.63 ± 0.048
LAINAKTITSGLKYALA [RPB2] | 2.65 ± 0.057 | 2.83 ± 0.073 | 2.4 ± 0.061 | 2.79 ± 0.044
LAKAVAATIGANFIFSP [RPT4] | 2.09 ± 0.048 | 1.99 ± 0.042 | 1.72 ± 0.088 | 2.18 ± 0.069
LALEIIVRPAKGVATTR [RRP46] | 2.09 ± 0.058 | 2.18 ± 0.065 | 1.86 ± 0.078 | 2.25 ± 0.051
LALPVFHIGYFKATIQI [RPO31] | 1.51 ± 0.059 | 1.49 ± 0.043 | 1.87 ± 0.098 | 1.58 ± 0.044
LALSSNISRDFQSYIVS [COR1] | 2.03 ± 0.073 | 2.71 ± 0.084 | 2.09 ± 0.1 | 1.88 ± 0.047
LAMVIIKEFVDDLKKDH [DSN1] | 2.74 ± 0.2 | 2.92 ± 0.16 | 2.88 ± 0.12 | 2.85 ± 0.085
LARASGNYVIIIGHNPD [RPL2A] | 2.8 ± 0.087 | 2.89 ± 0.089 | 2.85 ± 0.096 | 2.68 ± 0.097
LAVIMDNIGEIDESLFN [YCG1] | 3.08 ± 0.12 | 3.1 ± 0.064 | 3.13 ± 0.059 | 3 ± 0.12
LAYAVLGIALIALGEDI [RPN1] | 1.73 ± 0.094 | 1.72 ± 0.094 | 1.98 ± 0.11 | 2.33 ± 0.06
LCDNFNHFSLSYKDSGL [COR1] | 2.27 ± 0.066 | 2.7 ± 0.069 | 2.73 ± 0.067 | 2.5 ± 0.066
LCYMAPMTVKLVQLPKS [POP3] | 2.37 ± 0.065 | 2.23 ± 0.063 | 2.39 ± 0.06 | 2.76 ± 0.065
LDDFGEEELFEVTKEED [RRP43] | 2.92 ± 0.11 | 2.54 ± 0.15 | 2.36 ± 0.12 | 
LDDWISIGYETELKKIT [IRR1] | 2.09 ± 0.07 | 2.75 ± 0.078 | 2.33 ± 0.14 | 2.58 ± 0.053
LDKNLIKLVKQNDELKF [RPC34] | 1.16 ± 0.077 | 1.21 ± 0.073 | 1.43 ± 0.18 | 2.18 ± 0.1
